Assay results as given in US20090304718A1 (Boehringer Ingelheim, published 2009).
Blank lines part the entries; values can stand above or below the molecule they belong to.

Tests used:
[1] = molecular target: human FAP (fibroblast activation protein alpha) expressed on HT1080 clone v1.33 cells (human) (UniProt Q12884); test: cell ELISA on ethanol-fixed HT1080 v1.33 cells expressing human FAP; rabbit anti-human-IgG-peroxidase, TMB, OD 450 nm
[2] = molecular target: T1, human FAP (fibroblast activation protein alpha) expressed on HT1080 clone v1.33 cells (human, UniProt Q12884 1-760); test: cell-based or functional assay
T1 sequence (looked up): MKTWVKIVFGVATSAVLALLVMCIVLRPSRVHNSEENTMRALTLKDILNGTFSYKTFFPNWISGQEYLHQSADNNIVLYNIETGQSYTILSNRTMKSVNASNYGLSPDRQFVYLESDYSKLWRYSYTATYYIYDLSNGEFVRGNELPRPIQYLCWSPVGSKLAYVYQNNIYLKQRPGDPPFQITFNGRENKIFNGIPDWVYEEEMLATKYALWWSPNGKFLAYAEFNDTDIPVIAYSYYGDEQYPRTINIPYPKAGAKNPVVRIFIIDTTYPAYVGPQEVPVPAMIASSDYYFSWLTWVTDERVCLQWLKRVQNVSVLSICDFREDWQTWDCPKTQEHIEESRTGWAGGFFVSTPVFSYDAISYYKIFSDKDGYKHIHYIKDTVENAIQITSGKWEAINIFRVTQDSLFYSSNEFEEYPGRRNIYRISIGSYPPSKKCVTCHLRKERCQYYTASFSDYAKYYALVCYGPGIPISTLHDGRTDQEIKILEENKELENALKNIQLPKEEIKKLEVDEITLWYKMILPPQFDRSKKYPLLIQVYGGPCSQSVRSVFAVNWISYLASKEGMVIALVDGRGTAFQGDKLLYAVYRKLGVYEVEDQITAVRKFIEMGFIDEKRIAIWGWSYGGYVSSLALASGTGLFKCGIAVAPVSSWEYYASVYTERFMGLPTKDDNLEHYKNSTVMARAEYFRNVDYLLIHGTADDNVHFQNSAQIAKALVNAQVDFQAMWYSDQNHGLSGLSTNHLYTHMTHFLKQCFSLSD

[3] = molecular target: T2, murine FAP expressed on HT1080 clone 13.6 cells (mouse, UniProt P97321 1-761); test: cell ELISA on ethanol-fixed HT1080 13.6 cells expressing murine FAP; goat anti-mouse-Ig-peroxidase, TMB, OD 450 nm
T2 construct: whole, on cells; also called mouse FAP
T2 sequence (looked up): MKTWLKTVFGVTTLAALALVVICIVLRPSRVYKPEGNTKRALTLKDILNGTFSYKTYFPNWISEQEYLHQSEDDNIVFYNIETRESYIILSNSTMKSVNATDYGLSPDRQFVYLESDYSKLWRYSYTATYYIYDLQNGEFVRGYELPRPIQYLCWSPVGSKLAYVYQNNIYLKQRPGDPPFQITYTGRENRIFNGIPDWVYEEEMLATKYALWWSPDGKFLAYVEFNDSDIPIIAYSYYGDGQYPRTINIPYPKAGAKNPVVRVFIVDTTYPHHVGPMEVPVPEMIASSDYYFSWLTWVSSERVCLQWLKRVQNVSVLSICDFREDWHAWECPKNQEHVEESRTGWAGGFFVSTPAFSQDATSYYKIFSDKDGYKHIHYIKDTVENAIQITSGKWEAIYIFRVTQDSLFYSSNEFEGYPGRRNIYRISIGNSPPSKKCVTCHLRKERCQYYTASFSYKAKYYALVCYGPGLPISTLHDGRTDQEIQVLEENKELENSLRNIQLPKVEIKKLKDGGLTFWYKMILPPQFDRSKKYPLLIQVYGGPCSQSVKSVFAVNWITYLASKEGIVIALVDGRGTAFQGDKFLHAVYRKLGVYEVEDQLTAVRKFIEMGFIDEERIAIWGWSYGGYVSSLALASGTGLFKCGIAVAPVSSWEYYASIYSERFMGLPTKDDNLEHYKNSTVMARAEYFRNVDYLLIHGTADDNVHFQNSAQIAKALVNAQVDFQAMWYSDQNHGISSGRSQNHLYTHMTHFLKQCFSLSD
Method: The binding of BIBH1 and MFP5 antibodies and the respective antibody conjugates BIBH1-DM1 and MFP5-DM1 to antigen positive and negative HT1080 cells is determined in a cell-ELISA assay. […] Stable clones are generated as described for HT1080 v1.33 and clones positive for murine FAP are screened with the murine FAP specific monoclonal antibody 3D11 (Niedermeyer et al., 2000). For the cell ELISA 100 μl of cell suspensions at various cell densities are seeded per well of a 96-well microliter plate and the cells are incubated overnight in an incubator (37° C., 5% CO2). On the next day, cells are fixed with 100% ethanol. Dilutions of the antibodies BIBH1 and MFP5 and of the conjugates BIBH1-DM1 and MFP5-DM1 are added in duplicates and incubated for two hours. After washing three times with PBS/Tween, diluted rabbit anti-human-IgG-peroxidase conjugate is added for detection of the BIBH1 antibodies and for detection of the MFP5 antibodies a diluted goat anti-mouse-Ig-peroxidase conjugate is added. After incubation for two hours at RT plates are washed again three times with PBS/Tween and bound anti-FAP-antibodies detected by addition of TMB staining solution. […] A: Binding to HT1080 v1.33 expressing human FAP. The binding affinity of the antibodies is retained after conjugation to DM1. [0114] […] Only the murine specific antibody MFP5 binds. [0115] C: Negative control.

EC50 (read off the curve) [1]: 8 ng Ab/ml
Molecule: humanized anti-FAP antibody BIBH1 (sibrotuzumab)

EC50, proliferation assay [2]: 0.029 nM
B2: MFP5-SPDB-DM4 (other)
VH: QVQLQQSGAELARPGASVNLSCKASGYTFTNNGINWLKQRTGQGLEWIGEIYPRSTNTLYNEKFKGKATLTADRSSNTAYMELRSLTSEDSAVYFCARTLTAPFAFWGQGTLVTVSA
VL: QIVLTQSPAIMSASPGEKVTMTCSASSGVNFMHWYQQKSGTSPKRWIFDTSKLASGVPARFSGSGSGTSYSLTISSMEAEDAATYYCQQWSFNPPTFGGGTKLEIKR

EC50 (read off the curve) [3]: ~6 ng Ab/ml
B4: murine monoclonal antibody MFP5 (antibody, mouse IgG2a, V domains shown)
VH: B2 VH
VL: B2 VL
notes: also called BIA 13; mAbFAP5

Further lines, the molecule ahead of its results:

B1: MFP5-DM1 (MFP5-SPP-DM1, disulfide-linked immunoconjugate) (other)
VH: B2 VH
VL: B2 VL
EC50 (concentration resulting in 50% cytotoxic effect), MTS cytotoxicity assay, 3 days [2]: ~0.04 nM

B3: MFP5-SMCC-DM1 (other)
VH: B2 VH
VL: B2 VL
EC50, proliferation assay [2]: 0.022 nM

B5: BIBH1-DM1 (protein, INN chains, looked up)
VH: QVQLVQSGAEVKKPGASVKVSCKTSRYTFTEYTIHWVRQAPGQRLEWIGGINPNNGIPNYNQKFKGRVTITVDTSASTAYMELSSLRSEDTAVYYCARRRIAYGYDEGHAMDYWGQGTLVTVSS
VL: DIVMTQSPDSLAVSLGERATINCKSSQSLLYSRNQKNYLAWYQQKPGQPPKLLIFWASTRESGVPDRFSGSGFGTDFTLTISSLQAEDVAVYYCQQYFSYPLTFGQGTKVEIK
modifications: DM1 maytansinoid conjugate
EC50 (read off the curve) [1]: 10 ng Ab/ml
